OD450, Ratio OD(Variant)/OD(WT) and OD450 nm data for two molecules are collected here from patent publication US20240400654A1.

Assay [1] concerns the target HRgpA-6H (Porphyromonas gingivalis) (UniProt P28784). Nature of the assay: ELISA; non-related FASEBA supernatant on HRgpA-6H coat; secondary Anti-BSA (HRP).
Assay [2] shares this target. Nature of the assay: ELISA; non-related FASEBA supernatant on HRgpA-6H coat; secondary goat anti-human IgG F(ab')2 HRP.
Assay [3] shares this target. Nature of the assay: ELISA; non-related FASEBA supernatant on HRgpA-6H coat; secondary mouse anti-human IgG F(ab')2 HRP.
Assay [4] shares this target. Nature of the assay: ELISA; non-related FASEBA supernatant on HRgpA-6H coat; secondary goat anti-human IgG (H+L) HRP.
For assay [5] the target is unchanged. Put plainly: ELISA, FASEBA screening, coated HRgpA-6H; library clone found WT, OD over parental WT Fab OD.
Assay [6] shares this target. Nature of the assay: ELISA, FASEBA screening, coated HRgpA-6H 0.0625 ug/ml.

UniProt P28784, sequence (P28784 228-860): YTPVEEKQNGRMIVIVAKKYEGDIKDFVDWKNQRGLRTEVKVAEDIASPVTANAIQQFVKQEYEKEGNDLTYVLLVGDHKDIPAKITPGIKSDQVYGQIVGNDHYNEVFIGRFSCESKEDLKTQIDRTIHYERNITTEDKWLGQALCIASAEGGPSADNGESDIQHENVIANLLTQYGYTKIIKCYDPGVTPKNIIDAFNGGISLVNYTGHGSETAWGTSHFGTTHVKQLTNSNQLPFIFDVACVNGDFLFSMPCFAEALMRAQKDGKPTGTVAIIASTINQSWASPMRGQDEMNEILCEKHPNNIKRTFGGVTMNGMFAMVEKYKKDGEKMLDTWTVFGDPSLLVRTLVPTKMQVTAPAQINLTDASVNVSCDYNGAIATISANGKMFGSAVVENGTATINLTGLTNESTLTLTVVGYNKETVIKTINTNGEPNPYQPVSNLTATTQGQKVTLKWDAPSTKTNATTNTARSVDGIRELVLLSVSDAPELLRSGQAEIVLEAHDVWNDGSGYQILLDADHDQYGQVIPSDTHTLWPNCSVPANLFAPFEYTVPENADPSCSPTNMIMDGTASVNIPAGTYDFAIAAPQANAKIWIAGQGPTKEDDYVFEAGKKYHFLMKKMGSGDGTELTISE

In the case of “non-related FASEBA supernatant (NC) (Fab)”, the OD450 came out at 1.09 in assay [1]; 0.672 in assay [2]; 0.552 in assay [3] (coating antigen 1 µg/ml); 0.288 in assay [3] (coating antigen 2 µg/ml); 1.15 in assay [4] (coating antigen 1 µg/ml); 0.736 in assay [4] (coating antigen 2 µg/ml).

B1: KB001 parental mouse Fab FASEBA (WT) (Fab, V domains shown)
VH: EVQLKQSGPGLVAPSQSLSITCTVSGFSLSIYSVHWVRQPPGKGLEWLGMIWGGGSSDYNSALKSRLSISKDNSKSQVFLKMNSLQTDDTAMYYCARNGNFYAMDYWGQGTSVTVSS
VL: QIVLTQSPAIMSASLGERVTMTCTASSSVSSSFLHWYQQKPGSSPQLWIYSTSNLASGVPARFSGSGSGTSYSLTISSMEAEDAATYYCHQYHHSPYIYTFGGGTKLEIK
Turning to B1, the Ratio OD(Variant)/OD(WT) in assay [5] is 0.956. In assay [6], this molecule had an OD450 nm of 0.831.
